Patent US20150266967A1

Biological target: recombinant Fcγ-receptor 3a protein, high affinity V158 allotype (UniProt P08637)
Assay: surface plasmon resonance, KD from ka and kd

Sequence of recombinant Fcγ-receptor 3a protein, high affinity V158 allotype (P08637 17-208 F176V): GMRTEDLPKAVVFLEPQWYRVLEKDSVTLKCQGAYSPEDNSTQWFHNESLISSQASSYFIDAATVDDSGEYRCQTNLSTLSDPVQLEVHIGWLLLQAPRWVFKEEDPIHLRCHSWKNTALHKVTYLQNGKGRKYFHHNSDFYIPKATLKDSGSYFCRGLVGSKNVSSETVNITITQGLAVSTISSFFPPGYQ

non Fc-engineered IgG1 reference antibody
Kd: 379 nM
